Test results reported in patent US6770458.

How the values were obtained:
Experiment in all cases: cell-based or functional assay
[1] = target: p53 fused to the GAL4 DNA-binding domain (pAS2) (UniProt P04386)
[2] = target: CDK2 fused to the GAL4 DNA-binding domain (pAS2) (UniProt P04386)
[3] = target: Smad7 (expression construct, tag not specified)

Chain of p53 fused to the GAL4 DNA-binding domain (pAS2) (P04386 1-147): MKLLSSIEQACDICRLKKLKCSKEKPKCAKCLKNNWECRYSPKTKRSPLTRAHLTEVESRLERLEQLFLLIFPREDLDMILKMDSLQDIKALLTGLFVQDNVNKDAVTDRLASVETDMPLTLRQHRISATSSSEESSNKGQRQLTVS
Chain of CDK2 fused to the GAL4 DNA-binding domain (pAS2) (P04386 1-147): as above

| β-galactosidase Activity (relative scale) [1] | β-galactosidase Activity (relative scale) [2] | fold repression of (CAGA)9 MLP-Luc reporter activity in HepG2 cells [3] [fold] | Substance |
| --- | --- | --- | --- |
| 1.1 | – | – | FKBP12.6 in pACT (from UniProt Q9Z2I2 1-108) |
| < 1 | 1.2 | – | STRAP (Serine-Threonine Kinase Receptors Associated Protein) in pACT (from UniProt Q9Z1Z2 1-350) |
| – | – | 105 | STRAP (expression construct, tag not specified) (from UniProt Q9Z1Z2 1-350) |
